In paper PMC7244493, “Osteogenesis imperfecta mutations in plastin 3 lead to impaired calcium regulation of actin bundling” (Bone Research, 2020):
Substitutions are numbered along the chain they refer to. Names may count otherwise.

B1: plastin 3 (PLS3), wild type (natural protein)
chain: MDEMATTQISKDELDELKEAFAKVDLNSNGFICDYELHELFKEANMPLPGYKVREIIQKLMLDGDRNKDGKISFDEFVYIFQEVKSSDIAKTFRKAINRKEGICALGGTSELSSEGTQHSYSEEEKYAFVNWINKALENDPDCRHVIPMNPNTDDLFKAVGDGIVLCKMINLSVPDTIDERAINKKKLTPFIIQENLNLALNSASAIGCHVVNIGAEDLRAGKPHLVLGLLWQIIKIGLFADIELSRNEALAALLRDGETLEELMKLSPEELLLRWANFHLENSGWQKINNFSADIKDSKAYFHLLNQIAPKGQKEGEPRIDINMSGFNETDDLKRAESMLQQADKLGCRQFVTPADVVSGNPKLNLAFVANLFNKYPALTKPENQDIDWTLLEGETREERTFRNWMNSLGVNPHVNHLYADLQDALVILQLYERIKVPVDWSKVNKPPYPKLGANMKKLENCNYAVELGKHPAKFSLVGIGGQDLNDGNQTLTLALVWQLMRRYTLNVLEDLGDGQKANDDIIVNWVNRTLSEAGKSTSIQSFKDKTISSSLAVVDLIDAIQPGCINYDLVKSGNLTEDDKHNNAKYAVSMARRIGARVYALPEDLVEVKPKMVMTVFACLMGRGMKRV
notes: plastin 3 (PLS3, T-plastin), human; recombinant wild type, parent of the OI mutants; Modified pColdI vector with a TEV protease site after the 6xHis tag; also called T-plastin; WT PLS3; source: E. coli BL21-CodonPlus(DE3), purified (TALON cobalt resin)
B2: plastin 3 (PLS3) A368D (natural protein)
chain: B1 chain with A368D
notes: plastin 3 (PLS3), human, osteogenesis imperfecta-linked missense mutation A368D in CH2 of ABD1; Patient mutation; also called Ca2+-insensitive mutant; Ca2+-hyposensitive mutant; source: E. coli BL21-CodonPlus(DE3), purified (TALON cobalt resin)
B3: plastin 3 (PLS3) N446S (natural protein)
chain: B1 chain with N446S
notes: plastin 3 (PLS3), human, osteogenesis imperfecta-linked missense mutation N446S in a proline-rich loop of CH3; Patient mutation; also called Ca2+-hypersensitive mutant; source: E. coli BL21-CodonPlus(DE3), purified (TALON cobalt resin)
B4: plastin 3 (PLS3) E249_A250insIMGHSHSGSCLL (natural protein)
chain: MDEMATTQISKDELDELKEAFAKVDLNSNGFICDYELHELFKEANMPLPGYKVREIIQKLMLDGDRNKDGKISFDEFVYIFQEVKSSDIAKTFRKAINRKEGICALGGTSELSSEGTQHSYSEEEKYAFVNWINKALENDPDCRHVIPMNPNTDDLFKAVGDGIVLCKMINLSVPDTIDERAINKKKLTPFIIQENLNLALNSASAIGCHVVNIGAEDLRAGKPHLVLGLLWQIIKIGLFADIELSRNEIMGHSHSGSCLLALAALLRDGETLEELMKLSPEELLLRWANFHLENSGWQKINNFSADIKDSKAYFHLLNQIAPKGQKEGEPRIDINMSGFNETDDLKRAESMLQQADKLGCRQFVTPADVVSGNPKLNLAFVANLFNKYPALTKPENQDIDWTLLEGETREERTFRNWMNSLGVNPHVNHLYADLQDALVILQLYERIKVPVDWSKVNKPPYPKLGANMKKLENCNYAVELGKHPAKFSLVGIGGQDLNDGNQTLTLALVWQLMRRYTLNVLEDLGDGQKANDDIIVNWVNRTLSEAGKSTSIQSFKDKTISSSLAVVDLIDAIQPGCINYDLVKSGNLTEDDKHNNAKYAVSMARRIGARVYALPEDLVEVKPKMVMTVFACLMGRGMKRV
notes: Patient mutation; also called E249_A250insI-L; Ca2+-insensitive mutant; source: E. coli BL21-CodonPlus(DE3), purified (TALON cobalt resin)
B5: plastin 3 (PLS3) A253_L254insN (natural protein)
chain: MDEMATTQISKDELDELKEAFAKVDLNSNGFICDYELHELFKEANMPLPGYKVREIIQKLMLDGDRNKDGKISFDEFVYIFQEVKSSDIAKTFRKAINRKEGICALGGTSELSSEGTQHSYSEEEKYAFVNWINKALENDPDCRHVIPMNPNTDDLFKAVGDGIVLCKMINLSVPDTIDERAINKKKLTPFIIQENLNLALNSASAIGCHVVNIGAEDLRAGKPHLVLGLLWQIIKIGLFADIELSRNEALAANLLRDGETLEELMKLSPEELLLRWANFHLENSGWQKINNFSADIKDSKAYFHLLNQIAPKGQKEGEPRIDINMSGFNETDDLKRAESMLQQADKLGCRQFVTPADVVSGNPKLNLAFVANLFNKYPALTKPENQDIDWTLLEGETREERTFRNWMNSLGVNPHVNHLYADLQDALVILQLYERIKVPVDWSKVNKPPYPKLGANMKKLENCNYAVELGKHPAKFSLVGIGGQDLNDGNQTLTLALVWQLMRRYTLNVLEDLGDGQKANDDIIVNWVNRTLSEAGKSTSIQSFKDKTISSSLAVVDLIDAIQPGCINYDLVKSGNLTEDDKHNNAKYAVSMARRIGARVYALPEDLVEVKPKMVMTVFACLMGRGMKRV
notes: plastin 3 (PLS3), human, osteogenesis imperfecta-linked single-residue insertion A253_L254insN in the CH1-CH2 connecting loop of ABD1; Patient mutation; also called Ca2+-hypersensitive mutant; source: E. coli BL21-CodonPlus(DE3), purified (TALON cobalt resin)
B6: plastin 3 (PLS3) L478P (natural protein)
chain: B1 chain with L478P
notes: plastin 3 (PLS3), human, osteogenesis imperfecta-linked missense mutation L478P in CH3 of ABD2; Patient mutation; also called bundling-deficient mutant; source: E. coli BL21-CodonPlus(DE3), purified (TALON cobalt resin)

Molecular target: T1, F-actin (chicken skeletal muscle actin, polymerized) (chicken, UniProt P68139 1-377)
Experiment: cell-based or functional assay
Details: not given

F-actin bundling, low-speed (17 000 g) co-sedimentation, [PLS3]50%, Ca^2+	F-actin bundling, low-speed (17 000 g) co-sedimentation, [PLS3]50%, EGTA	Binder
2.97 µmol/L	0.49 µmol/L	B1
0.59 µmol/L	0.47 µmol/L	B2
6.36 µmol/L	0.58 µmol/L	B3
0.03 µmol/L	0.1 µmol/L	B4
2.09 µmol/L	0.53 µmol/L	B5

Molecular target: T1, F-actin (chicken skeletal muscle actin, …)
Experiment: co-sedimentation; high-speed co-sedimentation, 300 000 g, 25 °C, 30 min; plastin 5 µmol·L^-1, F-actin varied 1-50 µmol·L^-1; actin polymerized in 2 mmol·L^-1 MgCl2, 30 mmol·L^-1 KCl, 10 mmol·L^-1 HEPES pH 7.0; incubated overnight at 4 °C then 1 h at 25 °C; SDS-PAGE densitometry, fit to a binding isotherm
Details: both partners purified

Kd	Binder
7.41 µM	B1
2.16 µM	B6
4.22 µM	B2
4.79 µM	B3
2.56 µM	B4
3.77 µM	B5
